In patent US7094873:

How the values were obtained:
[1] = biological target: Hsp90 in rabbit reticulocyte lysate (Hsp90 heterocomplex) (rabbit) (UniProt P30947); experiment: rabbit reticulocyte lysate with recombinant CHIP, immunoprecipitation of Hsp90 with 3G3, Western blot; displaced molecule: Hop
[2] = biological target: Hsp90 in rabbit reticulocyte lysate (Hsp90 heterocomplex) (rabbit) (UniProt P30947); experiment: reticulocyte lysate with 35S-labeled GR, with or without CHIP, immunoprecipitation of Hsp90 with 3G3; displaced molecule: GR

Sequence of Hsp90 in rabbit reticulocyte lysate (Hsp90 heterocomplex) (rabbit) (P30947 2-726, one chain of several): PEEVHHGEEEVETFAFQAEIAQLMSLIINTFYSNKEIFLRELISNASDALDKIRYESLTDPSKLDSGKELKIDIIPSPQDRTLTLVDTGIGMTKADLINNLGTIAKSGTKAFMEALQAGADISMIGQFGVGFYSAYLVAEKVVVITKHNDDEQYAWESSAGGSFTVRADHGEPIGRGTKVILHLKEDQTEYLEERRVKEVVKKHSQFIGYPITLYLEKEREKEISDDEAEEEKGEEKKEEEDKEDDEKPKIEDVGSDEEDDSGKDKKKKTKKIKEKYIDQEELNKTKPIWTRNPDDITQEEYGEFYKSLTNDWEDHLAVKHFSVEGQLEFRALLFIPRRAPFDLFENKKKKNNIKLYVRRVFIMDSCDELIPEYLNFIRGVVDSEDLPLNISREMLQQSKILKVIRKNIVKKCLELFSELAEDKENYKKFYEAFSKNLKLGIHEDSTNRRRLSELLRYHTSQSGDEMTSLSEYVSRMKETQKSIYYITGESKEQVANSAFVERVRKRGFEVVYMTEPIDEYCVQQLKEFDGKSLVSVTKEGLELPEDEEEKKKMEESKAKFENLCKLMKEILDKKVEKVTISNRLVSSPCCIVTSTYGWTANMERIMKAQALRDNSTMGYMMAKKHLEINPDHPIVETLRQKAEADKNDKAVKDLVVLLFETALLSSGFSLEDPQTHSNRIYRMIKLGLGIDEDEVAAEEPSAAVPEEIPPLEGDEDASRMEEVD

- decrease of the amount of Hop associated with the Hsp90 complex [1]: 50%
- decrease of GR co-precipitated with Hsp90 [2]: 50%
Substance: Recombinant hCHIP (His-tagged fusion from plasmid pET-hCHIP, expressed in E. coli BL21) (from UniProt Q9UNE7 1-303)
